Experimental data: publication PMC5460288, “In vitro assembly of the Rous Sarcoma Virus capsid protein into hexamer tubes at physiological temperature” (Scientific Reports, 2017)

Experiments:
[1] = molecular target: RSV CA carrying the C-terminal spacer peptide (CA-SP, CA + 12) (Rous Sarcoma Virus (strain Prague C)); assay: cryo-EM structure; iterative real space helical reconstruction (SPRING) of one single-layered CA-SP tube, local C6 symmetrization of the turrets, 24 Å (FSC 0.143)
[2] = molecular target: the molecule itself; assay: negative-stain transmission electron microscopy; 600–700 μM protein dialyzed 16–24 h (overnight) at 37 °C against neutral pH (pH 7) buffer with 25–150 mM NaCl; uranyl acetate stain

Sequence of RSV CA carrying the C-terminal spacer peptide (CA-SP, CA + 12) (natural protein) (P03322 240-488 limits assumed): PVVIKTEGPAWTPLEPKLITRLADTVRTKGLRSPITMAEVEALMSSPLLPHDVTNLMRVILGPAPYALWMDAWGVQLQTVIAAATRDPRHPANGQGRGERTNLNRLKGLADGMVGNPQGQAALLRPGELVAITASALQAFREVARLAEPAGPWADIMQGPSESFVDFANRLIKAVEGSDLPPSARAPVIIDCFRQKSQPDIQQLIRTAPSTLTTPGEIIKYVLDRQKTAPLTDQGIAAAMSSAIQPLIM

Molecule	stoichiometry N [1]	stoichiometry N [2]
RSV CA carrying the C-terminal spacer peptide (CA-SP, CA + 12) (natural protein)	6	–
Rous Sarcoma Virus capsid protein (RSV CA), wild type (natural protein, capsid protein (CA), the cut product of the Gag polyprotein of Rous sarcoma virus strain Prague C; the naturally occurring species denoted CA (without spacer peptide residues); also called wild type RSV CA; full length RSV CA; not shown: Mycobacterium xenopi GyrA intein (modified), C-terminal, cleaved) PVVIKTEGPAWTPLEPKLITRLADTVRTKGLRSPITMAEVEALMSSPLLPHDVTNLMRVILGPAPYALWMDAWGVQLQTVIAAATRDPRHPANGQGRGERTNLNRLKGLADGMVGNPQGQAALLRPGELVAITASALQAFREVARLAEPAGPWADIMQGPSESFVDFANRLIKAVEGSDLPPSARAPVIIDCFRQKSQPDIQQLIRTAPSTLTTPGEIIKYVLDRQKTAPLTDQGIA	–	6
